Source: patent US20260055201A1 (SHENGHE CHINA BIOPHARMACEUTICAL, published 2026)
Values belong to the binder of their own block, whether it stands above or below them.

What was measured:
[1] = molecular target: T1, Human TNFR2 mFc (manufacturer: Kaixia, CAT: TN-HM3R2) (human, UniProt P20333 23-257); experiment: bridging ELISA: human TNFR2 mFc coated, antibody titrated, then human 4-1BB His 0.3 ug/mL, HRP anti-His detection, OD450
T1 construct: treated as one molecule; also called Human TNFR2 mFC (KaKa, CAT: TNF-HM3R2); human TNFR2 mFC protein; not shown: mFc part
T1 sequence (looked up): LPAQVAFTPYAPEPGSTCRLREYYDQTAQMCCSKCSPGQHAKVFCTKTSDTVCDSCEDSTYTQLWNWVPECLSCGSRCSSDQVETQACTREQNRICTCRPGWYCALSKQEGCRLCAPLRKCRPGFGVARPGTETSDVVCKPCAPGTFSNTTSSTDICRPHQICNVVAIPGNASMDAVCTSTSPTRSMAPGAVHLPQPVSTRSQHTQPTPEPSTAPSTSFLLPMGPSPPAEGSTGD
Protocol: (§1) The coating solution was poured off. Each well was washed with 1×PBST at 300 μL, washed 4 times with a plate washer, and patted dry on a flat paper. It was blocked with 3% skim milk powder at 300 μL/well, and incubated at 37° C. for 1 h. The blocking solution was poured off, washed 4 times with a plate washer, and patted dry on a flat paper. […] Starting at 50 nM, which was used as the initial concentration for 3-fold dilution, a total of 10 gradients were diluted, and a blank well was set up and only the diluent was added. It was incubated at 37° C. for 1 h at 100 μL/well. The liquid in the well was discarded, washed 4 times with a plate washer, and patted dry on a flat paper. Human 4-1BB His (manufacturer: Acro, CAT: 41B-H5258, LOT: 198-2146F1-W6) was diluted to 0.3 μg/mL, 100 μL was added to each well, and incubated at room temperature for 1 h. […] It was washed 6 times with a plate washer, and patted dry on a flat paper. TMB color developing solution was added at 100 μL/well, and wrapped with aluminum foil. Color development was performed at 37° C. in the dark for 8 min. Termination solution 1M HCl was added to terminate the color development reaction at 100 μL/well. Readings were taken at 450 nm on an ELISA reader.

[2] = molecular target: T2, Human 4-1BB His (manufacturer: Acro, CAT: 41B-H5258) (human, UniProt Q07011 24-186); experiment: ELISA, human 4-1BB His coated at 0.2 ug/mL, anti-human IgG detection, OD450
T2 construct: Bought protein; also called human 4-1BB protein; 4-1BB protein; not shown: His tag
Protocol: The coating solution was poured off. Each well was washed with 1×PBST at 300 μL, washed 4 times with a plate washer, and patted dry on a flat paper. It was blocked with 3% skim milk powder at 300 μL/well, and incubated at 37° C. for 1 h. The blocking solution was poured off, washed 4 times with a plate washer, and patted dry on a flat paper. Negative control and positive control were set up. […] The positive control and antibody were diluted to 10 μg/mL with 3% skim milk powder as the starting concentration, and then diluted by 3-fold gradient (11 gradients in total), and a blank well was set up and only the diluent was added. It was incubated at 37° C. for 1 h at 100 μL/well. The liquid in the well was discarded, washed 4 times with a plate washer, and patted dry on a flat paper. […] It was washed 6 times with a plate washer, and patted dry on a flat paper. TMB color developing solution was added at 100 μL/well, and wrapped with aluminum foil. Color development was performed at 37° C. in the dark for 8 min. Termination solution 1M HCl was added to terminate the color development reaction at 100 μL/well. Readings were taken at 450 nm on an ELISA reader.

[3] = molecular target: T3, Human 4-1BB Fc (manufacturer: Acro, CAT: 41B-H5258) (human, UniProt Q07011 24-186); experiment: bridging ELISA: human 4-1BB Fc coated, antibody titrated, then human TNFR2 His 0.3 ug/mL, HRP anti-His detection, OD450
T3 construct: not shown: Fc part
Protocol: as §1, with “paper.” for “paper. Human 4-1BB His (manufacturer: Acro, CAT: 41B-H5258, LOT: 198-2146F1-W6) was diluted to 0.3 μg/mL, 100 μL was added to each well, and incubated at room temperature for 1 h.”

T3 sequence (Q07011 24-186 limits assumed): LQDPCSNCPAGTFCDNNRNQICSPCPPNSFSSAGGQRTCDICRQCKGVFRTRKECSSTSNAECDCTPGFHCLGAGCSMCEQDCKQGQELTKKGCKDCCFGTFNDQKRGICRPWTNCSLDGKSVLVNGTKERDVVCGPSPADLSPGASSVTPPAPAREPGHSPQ
T2 sequence (Q07011 24-186 limits assumed): as above

- EC50 (read off the curve) [1]: ~0.06 nM
- EC50 (read off the curve) [2]: ~0.1 nM
B1: TB-C1 (bispecific antibody, human IgG1, kappa)
light: DIQMTQSPSSLSASLGDRVTISCSASQGISNYLNWYQQKPDGTVKLLIYYTSTLHSGVPSRFSGSGSGTDYTLTISSLQPEDIATYYCQQYSKLPWTFGGGTKLEIKRTVAAPSVFIFPPSDEQLKSGTASVVCLLNNFYPREAKVQWKVDNALQSGNSQESVTEQDSKDSTYSLSSTLTLSKADYEKHKVYACEVTHQGLSSPVTKSFNRGEC
heavy: not shown
notes: also called antibody TB-C1

- EC50 (read off the curve) [3]: ~0.6 nM
B2: TB-A (bispecific antibody, human IgG1, kappa)
light: B1 light
heavy: not shown
notes: also called antibody TB-A
